± gives the standard deviation of the averaged measurements.
How the values were obtained:
[1] = system: VchCAST RNA-guided transposition machinery (E. coli BL21(DE3) host, lacZ target); assay: relative integration efficiency (T-RL orientation) vs wild-type transposon end (log2 (normalized fold change)); transposon end mutated: right end (5 bp flank + 75 bp right end); higher = more efficient transposition
Outline: (§1)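 Barcode abundances in input plasmids and in genomic integration junctions were obtained by PCR amplification and Illumina sequencing. These came from E. coli BL21(DE3) co-transformed with a T7-driven effector plasmid and a pUC57 donor carrying 1549 left-end or 1849 right-end transposon variants, then plated with 0.1 mM IPTG at 37°C for 18 h. Relative integration efficiency is the output/input fold change, normalised to reference barcodes and log-transformed.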

[2] = system: VchCAST RNA-guided transposition machinery (E. coli BL21(DE3) host, lacZ target); assay: relative integration efficiency (T-LR orientation) vs wild-type transposon end (log2 (normalized fold change)); transposon end mutated: right end (5 bp flank + 75 bp right end); higher = more efficient transposition
Outline: as §1

Sequence | relative integration efficiency (log2) [1] | relative integration efficiency (log2) [2]
ACATTTGTTGATACAACCATAAAATGATAATTACACCCATAAATTGATAATTATCACACCCATAAATTGATATTGCCTCTGATCATAAATATATAAATTAATTATTAAATTAGTCAGGCACCGACAC | 1.34 ± 0.21 | 1.54 ± 0.18
ACATTTGTTGATACAACCATAAAATGATAATTACACCCATAAATTGATAATTATCACACCCATAAATTGATATTGCCTCTGATCATAATTGTTATCCGCTCACAATTCCAGTCAGACGCACCGACAC | -0.659 ± 0.41 | 0.885 ± 0.33
ACATTTGTTGATACAACCATAAAATGATAATTACACCCATAAATTGATAATTATCACACCCATAAATTGATATTGCCTCTGATCATACAACCATAAAATGATAATTAGTCAGACCAAGCACCGACAC | 0.403 ± 0.3 | -0.751 ± 0.19
ACATTTGTTGATACAACCATAAAATGATAATTACACCCATAAATTGATAATTATCACACCCATAAATTGATATTGCCTCTGATCATAGCAACCATAAAATGATAATTATCAGACCAAGCACCGACAC | -0.108 ± 0.26 | -0.337 ± 0.55
ACATTTGTTGATACAACCATAAAATGATAATTACACCCATAAATTGATAATTATCACACCCATAAATTGATATTGCCTCTGATCATAGCGTACTAGTTAACTAGTTCGAGTCAGACCGCACCGACAC | -0.142 ± 0.091 | -0.453 ± 0.046
ACATTTGTTGATACAACCATAAAATGATAATTACACCCATAAATTGATAATTATCACACCCATAAATTGATATTGCCTCTGATCATAGTCAAACTGTATTTATATACAGTTGGACCAGCACCGACAC | 0.00825 ± 0.2 | 0.414 ± 0.18
ACATTTGTTGATACAACCATAAAATGATAATTACACCCATAAATTGATAATTATCACACCCATAAATTGATATTGCCTCTGATCATAGTCAACCATAAAATGATAATTACAGACCAAGCACCGACAC | -0.223 ± 0.2 | -0.792 ± 0.34
ACATTTGTTGATACAACCATAAAATGATAATTACACCCATAAATTGATAATTATCACACCCATAAATTGATATTGCCTCTGATCATAGTCAACTGTATATAAATACAGTTCAGACCAGCACCGACAC | -0.116 ± 0.21 | 0.274 ± 0.022
ACATTTGTTGATACAACCATAAAATGATAATTACACCCATAAATTGATAATTATCACACCCATAAATTGATATTGCCTCTGATCATAGTCAATGTGATAACAATCACAGAAGACCAAGCACCGACAC | 0.245 ± 0.16 | -0.0829 ± 0.35
ACATTTGTTGATACAACCATAAAATGATAATTACACCCATAAATTGATAATTATCACACCCATAAATTGATATTGCCTCTGATCATAGTCACAACCATAAAATGATAATTAGACCAAGCACCGACAC | -0.196 ± 0.19 | -0.387 ± 0.086
ACATTTGTTGATACAACCATAAAATGATAATTACACCCATAAATTGATAATTATCACACCCATAAATTGATATTGCCTCTGATCATAGTCAGACAACCATAAAATGATAATTACCAAGCACCGACAC | -0.231 ± 0.065 | -0.436 ± 0.47
ACATTTGTTGATACAACCATAAAATGATAATTACACCCATAAATTGATAATTATCACACCCATAAATTGATATTGCCTCTGATCATAGTCAGACCAACAACCATAAAATGATAATTAGCACCGACAC | 0.0312 ± 0.094 | -0.0679 ± 0.32
ACATTTGTTGATACAACCATAAAATGATAATTACACCCATAAATTGATAATTATCACACCCATAAATTGATATTGCCTCTGATCATAGTCAGACCAACATTTGTGAGCGGATAACAAGCACCGACAC | -0.379 ± 0.087 | -0.684 ± 0.077
ACATTTGTTGATACAACCATAAAATGATAATTACACCCATAAATTGATAATTATCACACCCATAAATTGATATTGCCTCTGATCATAGTCAGACCAACCATAAAATGATAATTACAAGCACCGACAC | -0.253 ± 0.23 | -0.0296 ± 0.24
ACATTTGTTGATACAACCATAAAATGATAATTACACCCATAAATTGATAATTATCACACCCATAAATTGATATTGCCTCTGATCATAGTCAGACCACAACCATAAAATGATAATTAAGCACCGACAC | -0.0173 ± 0.24 | -0.205 ± 0.37
ACATTTGTTGATACAACCATAAAATGATAATTACACCCATAAATTGATAATTATCACACCCATAAATTGATATTGCCTCTGATCATAGTCAGACCCAACCATAAAATGATAATTAAAGCACCGACAC | 0.0847 ± 0.29 | 0.192 ± 0.26
ACATTTGTTGATACAACCATAAAATGATAATTACACCCATAAATTGATAATTATCACACCCATAAATTGATATTGCCTCTGATCATAGTCAGATGAATTTTTATGCAAAGACCAACAGCACCGACAC | 0.552 ± 0.3 | 0.652 ± 0.2
ACATTTGTTGATACAACCATAAAATGATAATTACACCCATAAATTGATAATTATCACACCCATAAATTGATATTGCCTCTGATCATAGTCAGCAACCATAAAATGATAATTAACCAAGCACCGACAC | -0.283 ± 0.15 | -0.485 ± 0.41

Reference: the supplement of paper PMC10201428
